Assay results taken from patent US20240117030A1 (Pfizer, published 2024).

T1: human IL-23 (human, UniProt Q9NPF7 20-189; P29460 23-328)
T1 sequence (looked up) 1: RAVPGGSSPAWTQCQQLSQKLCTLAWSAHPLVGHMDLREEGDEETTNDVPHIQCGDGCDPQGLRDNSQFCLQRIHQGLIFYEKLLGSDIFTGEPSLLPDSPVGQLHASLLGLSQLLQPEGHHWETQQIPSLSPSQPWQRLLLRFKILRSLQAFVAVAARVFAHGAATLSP
T1 sequence (looked up) 2: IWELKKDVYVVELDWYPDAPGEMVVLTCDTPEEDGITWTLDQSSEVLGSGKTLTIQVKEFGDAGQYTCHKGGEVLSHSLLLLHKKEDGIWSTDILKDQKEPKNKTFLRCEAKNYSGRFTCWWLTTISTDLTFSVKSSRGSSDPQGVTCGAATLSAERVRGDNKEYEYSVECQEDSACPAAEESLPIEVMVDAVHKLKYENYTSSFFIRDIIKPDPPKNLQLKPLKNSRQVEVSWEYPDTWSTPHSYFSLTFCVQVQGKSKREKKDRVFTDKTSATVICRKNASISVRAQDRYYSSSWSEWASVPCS

T2: human IL-4 (human, UniProt P05112 25-153)
T2 sequence (looked up): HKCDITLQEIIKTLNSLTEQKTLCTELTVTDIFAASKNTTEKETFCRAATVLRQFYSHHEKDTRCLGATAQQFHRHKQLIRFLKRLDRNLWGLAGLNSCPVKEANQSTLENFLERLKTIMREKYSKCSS

T3: human IL-12 (human, UniProt P29459 23-219; P29460 23-328)
T3 sequence (looked up) 1: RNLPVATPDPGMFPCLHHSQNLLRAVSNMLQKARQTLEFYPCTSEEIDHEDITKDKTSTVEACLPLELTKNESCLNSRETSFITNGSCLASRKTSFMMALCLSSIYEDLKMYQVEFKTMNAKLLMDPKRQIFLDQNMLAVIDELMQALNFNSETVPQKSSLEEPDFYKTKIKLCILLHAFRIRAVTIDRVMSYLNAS
T3 sequence (looked up) 2: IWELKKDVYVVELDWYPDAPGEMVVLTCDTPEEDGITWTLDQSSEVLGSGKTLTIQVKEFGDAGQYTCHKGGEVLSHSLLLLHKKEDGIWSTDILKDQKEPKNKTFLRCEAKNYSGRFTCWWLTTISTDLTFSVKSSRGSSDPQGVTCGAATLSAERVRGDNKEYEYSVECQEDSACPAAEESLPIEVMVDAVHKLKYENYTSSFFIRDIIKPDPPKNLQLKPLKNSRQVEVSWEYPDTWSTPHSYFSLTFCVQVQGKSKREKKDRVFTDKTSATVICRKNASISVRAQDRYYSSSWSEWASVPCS

T4: cynomolgus monkey IL-12 (cynomolgus monkey, UniProt A0A2K5V4L8 57-253; G7P6S2 23-328)
T4 sequence (p35): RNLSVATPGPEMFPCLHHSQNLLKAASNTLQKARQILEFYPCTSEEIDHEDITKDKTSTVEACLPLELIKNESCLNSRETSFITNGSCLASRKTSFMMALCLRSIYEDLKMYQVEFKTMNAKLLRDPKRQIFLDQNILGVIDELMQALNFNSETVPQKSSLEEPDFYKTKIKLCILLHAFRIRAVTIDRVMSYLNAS
T4 sequence (p40): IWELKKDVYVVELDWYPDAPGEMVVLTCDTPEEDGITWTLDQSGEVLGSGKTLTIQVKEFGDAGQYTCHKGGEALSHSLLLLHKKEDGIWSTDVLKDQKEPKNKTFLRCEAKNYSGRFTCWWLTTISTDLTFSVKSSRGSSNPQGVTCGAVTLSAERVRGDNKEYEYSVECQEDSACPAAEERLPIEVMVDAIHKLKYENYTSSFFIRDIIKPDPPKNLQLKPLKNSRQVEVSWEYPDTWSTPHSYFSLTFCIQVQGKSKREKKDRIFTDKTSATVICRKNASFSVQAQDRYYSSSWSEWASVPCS

T5: cynomolgus monkey IL-4 (cynomolgus monkey, UniProt P79339 25-153)
T5 construct: mature; also called cy IL-4; cyno IL-4
T5 sequence (looked up): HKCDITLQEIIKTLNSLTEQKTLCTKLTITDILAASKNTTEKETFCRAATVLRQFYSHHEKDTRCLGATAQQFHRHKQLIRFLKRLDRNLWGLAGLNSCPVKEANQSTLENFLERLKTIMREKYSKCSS

T6: recombinant human IL-33 (wild type, Ser112-Thr270) (human, UniProt O95760 112-270)
T6 sequence (looked up): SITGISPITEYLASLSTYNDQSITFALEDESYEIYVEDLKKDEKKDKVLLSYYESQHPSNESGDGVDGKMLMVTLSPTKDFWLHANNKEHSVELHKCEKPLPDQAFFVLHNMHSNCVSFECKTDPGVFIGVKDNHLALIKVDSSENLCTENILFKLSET

T7: human IL-4 (human, UniProt P05112 25-153)
T7 sequence (looked up): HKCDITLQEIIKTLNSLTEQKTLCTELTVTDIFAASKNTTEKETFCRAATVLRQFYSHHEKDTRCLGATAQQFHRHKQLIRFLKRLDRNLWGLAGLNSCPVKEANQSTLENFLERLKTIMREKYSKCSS


How the values were obtained:
human IL-23 = target: T1, human IL-23; assay: cell-based or functional assay
human IL-13 [1] = target: human IL-13 (human, UniProt P35225 35-146); assay: cell-based or functional assay
Target sequence in this assay (P35225 35-146 limits assumed, form in doubt): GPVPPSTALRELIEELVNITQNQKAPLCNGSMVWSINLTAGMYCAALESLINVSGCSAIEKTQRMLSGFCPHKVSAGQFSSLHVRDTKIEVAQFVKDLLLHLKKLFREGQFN

human IL-4 [2] = target: T2, human IL-4; assay: cell-based or functional assay
human IL-12 = target: T3, human IL-12; assay: cell-based or functional assay
cynomolgus monkey IL-13 = cynomolgus monkey IL-13 (cynomolgus monkey, UniProt Q0PW92 19-132); assay: cell-based or functional assay
cynomolgus monkey IL-12 = target: T4, cynomolgus monkey IL-12; assay: cell-based or functional assay
cynomolgus monkey IL-23 = cynomolgus monkey IL-23 (cynomolgus monkey, UniProt H6WS56 20-189); assay: cell-based or functional assay
cynomolgus monkey IL-4 = target: T5, cynomolgus monkey IL-4; assay: KinExA, fixed antigen
Experimental: Samples were prepared in PBS containing 0.1% sodium azide and 1.0 mg/ml BSA. The fixed antigen assay method was used to determine binding affinity. […] Each trispecific and IL-4 cytokine were equilibrated for at least 72 hours at room temperature, then passed through a flow cell containing Polymethylmethacrylate (PMMA) beads coated with anti-hIL-4 Ab-0002 (Pfizer) that contains the same IL-4 binding domain as the trispecifics. […] Data analysis was performed with KinExA Pro software version 4.3.11 (Sapidyne). […] The ‘drift correction’ fitting option was used when responses varied between replicate injections. Two curves were obtained in independent experiments and analyzed using the ‘n-curve analysis’ tool to obtain global best fit values for the KD and active concentration of IL-4 cytokine. The software reports each best fit value along with a 95% confidence interval.
Samples were prepared in PBS containing 0.1% sodium azide and 1.0 mg/ml BSA. A fixed antigen assay method was used to determine binding affinity.

human IL-13 [3] = target: human IL-13 (human, UniProt P35225 35-146); assay: cell-based or functional assay; remark: listed apart in the source
Target sequence in this assay (P35225 35-146 limits assumed): as the sequence (P35225 35-146 limits assumed, form in doubt) above

[4] = target: T6, recombinant human IL-33 (wild type, …); assay: cell-based or functional assay
human IL-4 [5] = target: T7, human IL-4; assay: cell-based or functional assay; remark: listed apart in the source

cynomolgus monkey IL-13, sequence (Q0PW92 entry or part of it limits assumed): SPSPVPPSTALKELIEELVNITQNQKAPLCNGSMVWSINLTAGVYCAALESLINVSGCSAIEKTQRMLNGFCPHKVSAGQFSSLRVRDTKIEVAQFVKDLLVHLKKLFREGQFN

Row | Binder | fold less potent than p40-0003, Kit-225 pSTAT3 assay (human IL-23) | fold less potent than p40-0003, whole blood pSTAT3 assay (human IL-23) | fold IL-13 neutralization activity over dupilumab (monocyte CD23 bioassay) (human IL-13 [1]) | fold lower potency than IL13-0001 (monocyte CD23 bioassay) (human IL-13 [1]) | fold IL-4 neutralization activity over dupilumab (monocyte CD23 bioassay) (human IL-4 [2]) | fold lower potency than mAb IL4-1040 (monocyte CD23 bioassay) (human IL-4 [2]) | fold less potent than p40-0003, Kit-225 pSTAT4 assay (human IL-12) | fold less potent than p40-0003, whole blood pSTAT4 assay (human IL-12) | fold reduced neutralization compared to the human cytokine (monocyte CD23 bioassay) (cynomolgus monkey IL-13) | fold difference in potency between human and cynomolgus monkey IL-12, Kit-225 assay (cynomolgus monkey IL-12) | fold difference in potency between human and cynomolgus monkey IL-23, Kit-225 assay (cynomolgus monkey IL-23) | fold of the human IL-4 affinity value (cynomolgus monkey IL-4) | a-hIL-13 IC50 [pM] (human IL-13 [3]) | a-IL-33 bioassay (WT) IC50 [pM] [4] | a-hIL-4 IC50 [pM] (human IL-4 [5])
1 | IL413P40-0705 (trispecific antibody, EE/RR, LS; also called IL134P40-0705; Tri-Fab-Fc IL413p40-0705) heavy: EVQLVQSGAEVKKPGESLKISCKGSGYSFTTYWLGWVRQMPGKGLDWIGIMSPVDSDIRYSPSFQGQVTMSVDKSITTAYLQWNSLKASDTAMYYCARRRPGQGYFDFWGQGTLVTVSSASTKGPSVFPLAPSSKSTSGGTAALGCLVKDYFPEPVTVSWNSGALTSGVHTFPAVLQSSGLYSLSSVVTVPSSSLGTQTYICNVNHKPSNTKVDKKVEPKSCRKTHTCPPCPAPEAAGAPSVFLFPPKPKDTLMISRTPEVTCVVVDVSHEDPEVKFNWYVDGVEVHNAKTKPREEQYNSTYRVVSVLTVLHQDWLNGKEYKCKVSNKALPAPIEKTISKAKGQPREPQVYTLPPSREEMTKNQVSLTCLVKGFYPSDIAVEWESNGQPENNYKTTPPVLDSDGSFFLYSRLTVDKSRWQQGNVFSCSVLHEALHSHYTQKSLSLSPGK chain 1: DIQMTQSPSSLSASVGDRVTITCKASESVDHFGWSLVHWYQQKPGKAPKLLIYRASNLESGVPSRFSGSGSGTDFTLTISSLQPEDFATYYCQQSNEDPWTFGGGTKVEIKRTVAAPSVFIFPPSDEQLKSGTASVVCLLNNFYPREAKVQWKVDNALQSGNSQESVTEQDSKDSTYSLSSTLTLSKADYEKHKVYACEVTHQGLSSPVTKSFNRGECGGGGSEVTLRESGPALVKPTQTLTLTCTFSGFSLSNFGEGLSWIRQPPGKGLEWLAHIYWDDDKRYNPSLKSRLTISKDTSRNQVVLTMTNMDPVDTATYYCARRETVFYWYFDVWGQGTTVTVSSASTKGPSVFPLAPSSKSTSGGTAALGCLVKDYFPEPVTVSWNSGALTSGVHTFPAVLQSSGLYSLSSVVTVPSSSLGTQTYICNVNHKPSNTKVDKKVEPKSCEKTHTCPPCPAPEAAGAPSVFLFPPKPKDTLMISRTPEVTCVVVDVSHEDPEVKFNWYVDGVEVHNAKTKPREEQYNSTYRVVSVLTVLHQDWLNGKEYKCKVSNKALPAPIEKTISKAKGQPREPQVYTLPPSREEMTKNQVSLTCEVKGFYPSDIAVEWESNGQPENNYKTTPPVLDSDGSFFLYSKLTVDKSRWQQGNVFSCSVLHEALHSHYTQKSLSLSPGK light 1: not shown light 2: DIQMTQSPSSLSASVGDRVTITCRASQSVDEEGDSYMNWYQQKPGKAPKLLIYAASNLESGVPSRFSGSGSGTDFTLTISSLQPEDFATYYCQQSNKDPPTFGGGTKVEIKRTVAAPSVFIFPPSDEQLKSGTASVVCLLNNFYPREAKVQWKVDNALQSGNSQESVTEQDSKDSTYSLSSTLTLSKADYEKHKVYACEVTHQGLSSPVTKSFNRGEC chain 2: EVQLVESGGGLVQPGGSLRLSCAASGFTFSSYAMSWVRQAPGKGLEWVASISSGDTTYYPDSVKGRFTISRDNAKNSLYLQMNSLRAEDTAVYYCARNEGYYFGLTLWGQGTLVTVSSASTKGPSVFPLAPSSKSTSGGTAALGCLVKDYFPEPVTVSWNSGALTSGVHTFPAVLQSSGLYSLSSVVTVPSSSLGTQTYICNVNHKPSNTKVDKKVEPKSC | 2.6 fold | 2.4 fold | 8.9 fold | ~2.4 fold | ~10 fold | ~3.2 fold | 2.9 fold | 1.5 fold | ~4 fold | < 2 fold | < 2 fold | ≤ 1.2 fold |  |  | 
2 | IL13433-1042 (other) heavy: EVQLVESGGGLVQPGGSLRLSCAASGFTFSSYWMYWVRQAPGKGLEWVAAITPNAGEDYYPESVKGRFTISRDNAKNSLYLQMNSLRAEDTAVYYCARGQYYYTKYSLGYWGQGTLVTVSSASTKGPSVFPLAPSSKSTSGGTAALGCLVKDYFPEPVTVSWNSGALTSGVHTFPAVLQSSGLYSLSSVVTVPSSSLGTQTYICNVNHKPSNTKVDKKVEPKSCRKTHTCPRCPAPEAAGAPSVFLFPPKPKDTLMISRTPEVTCVVVDVSHEDPEVKFNWYVDGVEVHNAKTKPREEQYNSTYRVVSVLTVLHQDWLNGKEYKCKVSNKALPAPIEKTISKAKGQPREPQVYTLPPSREEMTKNQVSLTCLVKGFYPSDIAVEWESNGQPENNYKTTPPVLDSDGSFFLYSRLTVDKSRWQQGNVFSCSVLHEALHSHYTQKSLSLSPGK chain 1: DIQMTQSPSSLSASVGDRVTITCKASESVDHFGWSLVHWYQQKPGKAPKLLIYRASNLESGVPSRFSGSGSGTDFTLTISSLQPEDFATYYCQQSNEDPWTFGGGTKVEIKRTVAAPSVFIFPPSDEQLKSGTASVVCLLNNFYPREAKVQWKVDNALQSGNSQESVTEQDSKDSTYSLSSTLTLSKADYEKHKVYACEVTHQGLSSPVTKSFNRGECGGGGSEVTLRESGPALVKPTQTLTLTCTFSGFSLSNFGEGLSWIRQPPGKGLEWLAHIYWDDDKRYNPSLKSRLTISKDTSRNQVVLTMTNMDPVDTATYYCARRETVFYWYFDVWGQGTTVTVSSASTKGPSVFPLAPSSKSTSGGTAALGCLVKDYFPEPVTVSWNSGALTSGVHTFPAVLQSSGLYSLSSVVTVPSSSLGTQTYICNVNHKPSNTKVDKKVEPKSCEKTHTCPECPAPEAAGAPSVFLFPPKPKDTLMISRTPEVTCVVVDVSHEDPEVKFNWYVDGVEVHNAKTKPREEQYNSTYRVVSVLTVLHQDWLNGKEYKCKVSNKALPAPIEKTISKAKGQPREPQVYTLPPSREEMTKNQVSLTCEVKGFYPSDIAVEWESNGQPENNYKTTPPVLDSDGSFFLYSKLTVDKSRWQQGNVFSCSVLHEALHSHYTQKSLSLSPGK light 1: DIQMTQSPSSLSASVGDRVTITCRASQPIHNHLDWYQQKPGKAPKLLIYFGKNLQEGVPSRFSGSGSGTDFTLTISSLQPEDFATYYCFQYKKGWSFGGGTKVEIKRTVAAPSVFIFPPSDEQLKSGTASVVCLLNNFYPREAKVQWKVDNALQSGNSQESVTEQDSKDSTYSLSSTLTLSKADYEKHKVYACEVTHQGLSSPVTKSFNRGEC light 2: DIQMTQSPSSLSASVGDRVTITCRASQSVDEEGDSYMNWYQQKPGKAPKLLIYAASNLESGVPSRFSGSGSGTDFTLTISSLQPEDFATYYCQQSNEDPPTFGGGTKVEIKRTVAAPSVFIFPPSDEQLKSGTASVVCLLNNFYPREAKVQWKVDNALQSGNSQESVTEQDSKDSTYSLSSTLTLSKADYEKHKVYACEVTHQGLSSPVTKSFNRGEC chain 2: EVQLVESGGGLVQPGGSLRLSCAASGFTFSSYAMSWVRQAPGKGLEWVASISSGDTTYYPDSVKGRFTISRDNAKNSLYLQMNSLRAEDTAVYYCARNEGYYFGLTLWGQGTLVTVSSASTKGPSVFPLAPSSKSTSGGTAALGCLVKDYFPEPVTVSWNSGALTSGVHTFPAVLQSSGLYSLSSVVTVPSSSLGTQTYICNVNHKPSNTKVDKKVEPKSC |  |  |  |  |  |  |  |  |  |  |  |  | 12.4 pM | 28 pM | 7.1 pM
